The record followed here is paper PMC7374468, “Characterization of highly active 2-keto-3-deoxy-L-arabinonate and 2-keto-3-deoxy-D-xylonate dehydratases in terms of the biotransformation of hemicellulose sugars to chemicals” (Applied Microbiology and Biotechnology, 2020).

Data set [1] concerns the target T1, PpD-KdpD (Pseudomonas putida, UniProt Q88J13).
T1 construct: gene PP_2836; C-terminal His6 tag (kept), pET vector, E. coli BL21(DE3), HisTrap purified
T1 sequence (Q88J13 1-405): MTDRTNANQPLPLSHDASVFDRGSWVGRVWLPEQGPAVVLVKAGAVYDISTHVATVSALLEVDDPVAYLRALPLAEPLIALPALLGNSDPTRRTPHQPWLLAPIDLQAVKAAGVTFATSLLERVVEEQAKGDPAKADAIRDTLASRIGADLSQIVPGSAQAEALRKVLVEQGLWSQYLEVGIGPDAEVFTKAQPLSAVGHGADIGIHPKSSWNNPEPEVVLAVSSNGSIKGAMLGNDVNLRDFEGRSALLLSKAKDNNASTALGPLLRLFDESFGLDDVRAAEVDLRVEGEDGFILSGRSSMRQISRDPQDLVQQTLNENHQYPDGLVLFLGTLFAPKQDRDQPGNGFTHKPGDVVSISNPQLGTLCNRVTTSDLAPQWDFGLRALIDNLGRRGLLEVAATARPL
The experiment in a line: coupled assay with PpKGSADH, NADH at […] nm. To be noted: read-out: I50. The data set is classed as biochemical.

Substrate in data set [2]: O=C(O)C(=O)C[C@@H](O)CO
The experiment in a line: purified protein. The data set is classed as biochemical, Herbaspirillum seropedicae. The settings on record: 2 mM NAD+ for coupling enzyme, 5 mM MgCl2, 50 mM HEPES pH 7.5, 25 °C.

Substrate in data set [3]: O=C(O)C(=O)C[C@H](O)CO
The experiment in a line: purified protein, by the assay type. Details: coupled assay with PpKGSADH, NADH formation at 340 nm, Michaelis-Menten fit, 25 °C, pH 7.5. To be noted: pH 7.5; 25.0 °C. As for the experimental part:
To determine dehydratase activity, a coupled-assay with PpKGSADH as auxiliary enzyme was used to link the oxidation of KGSA to α-KG using NAD^+, as was described in a previous study (Beer et al. [2017]). The measurement was performed in a 96-well F-bottom plate (Greiner Bio-One, Germany). 20 μL of a diluted enzyme was added to a 96-well plate. A total of 180 μL of reaction solution containing different concentrations of either D-KDP or L-KDP with 0.5 U/mL PpKGSADH, 2 mM NAD^+, 5 mM MgCl2, 50 mM HEPES pH 7.5 (end concentration) were added subsequently. The measurement was performed with a Multiskan spectrophotometer (Thermo Scientific, Germany) by measuring the development of NADH at 340 nm at 25 °C. Enzyme activity (kcat) was defined as the number of NADH molecules formed per molecule of enzyme per second. Measurements were performed in triplicate.

Substrate in data set [4]: O=C(O)C(=O)C[C@@H](O)CO
The data set is described as follows: purified protein. The data set is classed as biochemical, Variovorax paradoxus. The settings on record: 2 mM NAD+ for coupling enzyme, 5 mM MgCl2, 50 mM HEPES pH 7.5, 25 °C.

Turning to `O=C(O)[C@H](O)[C@@H](O)[C@H](O)CO` [D-xylonate], the IC50 in data set [1] came out at 75 mM.

B1: HsL-KdpD (Herbaspirillum seropedicae SmR1) (protein)
chain: MSTPLYRGVFPVAPTIFDANGKLDLEGQKRAIDFMIDAGSNGLCILANFSEQFVLSDEERVQVQNTVLEHVAGRVPVIVTTTHYGSQICAERSRAAQDAGAAMVMVMPPYHGATFRVPEKQIYEFYKHVSDAIDIPIMIQDAPVAGTPLSAPFLARMAKEIEQVSYFKIETAGAASKLRDLIELGGDAVVGPWDGEEAITLIPDLDAGATGAMTGGGYPDGIRKIVDAYFAGDIEKAAELYMQWLPLINYENRQCGLSACKALMLEGGVIKSDMLRHPQPPLHPKVREGLLRVARRLDPLVLSWGR
notes: N-terminal His6 tag (kept), pET vector, E. coli BL21(DE3), HisTrap purified
For B1, in data set [2], the Km – broadly, the substrate concentration at which the rate is half of its maximum – was determined as 180 ± 0 µM; the kcat (as a rule, the number of substrate molecules converted per active site and unit of time at saturation) came out at 29.6 ± 0.2 s⁻¹; the kcat/Km – broadly, the second-order rate constant that governs catalysis at low substrate concentration – is 163900 ± 200 M⁻¹ s⁻¹. In data set [3], the Km stood at 4410 ± 90 µM, the kcat worked out at 11.38 ± 0.06 s⁻¹ and the kcat/Km turned out to be 2580 ± 140 M⁻¹ s⁻¹.

B2: VpL-KdpD (Variovorax paradoxus EPS) (protein)
chain: MPKPMNHNLSNPRYRGIFPVVPTTFTEQGALDLESQKRCVDFMIDAGSDGLCILANFSEQFVLSDEEREVLTRTMLEHVKGRVPVIVTTTHYSTKVCAERSRRAQDMGAAMLMVMPPYHGATFRVPEPQIFEFYAGLSDAVSIPIMIQDAPASGTVLSAPFLARMAKEIEHVAYFKIETANAAAKLRELIRLGGDAIEGPWDGEEAITLMPDLDAGATGSMTGGGYPDGIRPIIEAHRAGDRDKAFALYQQWLPLINYENRQAGLLACKSLMKEGGVIACEAPRHPLPAMHPATRAGLIETAKRLDPLVLRWGK
notes: as for B1
B2: in data set [4], the Km was determined as 150 ± 10 µM, the kcat is 21.8 ± 0.2 s⁻¹ and the kcat/Km is 146000 ± 200 M⁻¹ s⁻¹.
